In publication PMC9078787:

Target: Fcγ receptor IIIa (UniProt P08637)
Chain of UniProt P08637 (P08637 17-208): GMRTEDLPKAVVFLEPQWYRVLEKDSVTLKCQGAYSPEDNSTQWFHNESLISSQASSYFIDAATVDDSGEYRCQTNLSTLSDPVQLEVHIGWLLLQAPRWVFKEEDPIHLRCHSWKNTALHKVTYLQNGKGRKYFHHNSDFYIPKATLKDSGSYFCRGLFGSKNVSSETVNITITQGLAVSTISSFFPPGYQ

## Pertuzumab (trademark: Perjeta®) (antibody)
  ADCC reporter-gene assay (Jurkat-CD16a-FcεRIγ-NFAT-luc effector cells, SK-BR-3 target cells), relative activity by EC50; batch H0323B07 (%afucose 4.2), the reference standard (%relative activity): 100
  ADCC reporter-gene assay, relative activity by EC50; batch H0324B01 (%afucose 4.1) (%relative activity): 96
  ADCC reporter-gene assay, relative activity by EC50; batch H0337B01 (%afucose 2.6) (%relative activity): 82
  ADCC reporter-gene assay, relative activity by EC50; batch H0340B01 (%afucose 2.4) (%relative activity): 73
  ADCC reporter-gene assay, relative activity by EC50; batch H0371B01 (%afucose 2.1) (%relative activity): 91
  ADCC reporter-gene assay, relative activity by EC50; batch H0382B04 (%afucose 3.7) (%relative activity): 84
  ADCC reporter-gene assay, relative activity by EC50; batch H0383B01 (%afucose 1.8) (%relative activity): 78
  ADCC reporter-gene assay, relative activity by EC50; batch H0388B01 (%afucose 2.3) (%relative activity): 81
  ADCC reporter-gene assay, relative activity by EC50; batch H0389B01 (%afucose 1.9) (%relative activity): 76
  ADCC reporter-gene assay, relative activity by EC50; batch H0391B01 (%afucose 2.1) (%relative activity): 71
  ADCC reporter-gene assay, relative activity by EC50; batch H0394B01 (%afucose 2.1) (%relative activity): 73
  ADCC reporter-gene assay, relative activity by EC50; batch H0395B02 (%afucose 2.1) (%relative activity): 76
  ADCC reporter-gene assay, relative activity by EC50; batch H0396B01 (%afucose 2.1) (%relative activity): 71
  ADCC reporter-gene assay, relative maximum response; batch H0323B07 (%afucose 4.2), the reference standard (%relative activity): 100
  ADCC reporter-gene assay, relative maximum response; batch H0324B01 (%afucose 4.1) (%relative activity): 103
  ADCC reporter-gene assay, relative maximum response; batch H0337B01 (%afucose 2.6) (%relative activity): 86
  ADCC reporter-gene assay, relative maximum response; batch H0340B01 (%afucose 2.4) (%relative activity): 88
  ADCC reporter-gene assay, relative maximum response; batch H0371B01 (%afucose 2.1) (%relative activity): 72
  ADCC reporter-gene assay, relative maximum response; batch H0382B04 (%afucose 3.7) (%relative activity): 96
  ADCC reporter-gene assay, relative maximum response; batch H0383B01 (%afucose 1.8) (%relative activity): 70
  ADCC reporter-gene assay, relative maximum response; batch H0388B01 (%afucose 2.3) (%relative activity): 74
  ADCC reporter-gene assay, relative maximum response; batch H0389B01 (%afucose 1.9) (%relative activity): 70
  ADCC reporter-gene assay, relative maximum response; batch H0391B01 (%afucose 2.1) (%relative activity): 78
  ADCC reporter-gene assay, relative maximum response; batch H0394B01 (%afucose 2.1) (%relative activity): 74
  ADCC reporter-gene assay, relative maximum response; batch H0395B02 (%afucose 2.1) (%relative activity): 75
  ADCC reporter-gene assay, relative maximum response; batch H0396B01 (%afucose 2.1) (%relative activity): 80
